Experiments:
[1] = tested on: GA3102 (IHC 3+) gastric cancer PDX; test: Tumor volume / normalized AUC in gastric cancer PDX model; type: in vivo, Mice; conditions: GA3102 (FIGS. 12K, 12L); tucatinib 50 mg/kg oral twice daily, DV 2 mg/kg intravenous single dose
From the text: (§1) FIGS. […] show the effects of combining DV and tucatinib vs. DV as a single agent in gastric cancer patient-derived xenograft (PDX) models with varying HER2 expression levels: GA13745 (IHC 1+; FIGS. 12A, 12B), GA6821 (IHC 1+; FIGS. 12C, 12D), CTG-0148 (IHC 1+; FIGS. 12E, 12F), CTG-3036 (IHC 2+; FIGS. 12G, 12H), CTG-3033 (IHC 3+; FIGS. 12I, 12J), and GA3102 (IHC 3+; FIGS. 12K, 12L). Treatment with T-DXd, a HER2-directed ADC, was also included in the study. Tumor volume data shown as mean±SEM. For each model, tumor growth was evaluated using a normalized area under the curve (AUC) metric (see, Guo, S. et al. (2019) BMC Cancer 19, 718) (FIGS. 12A, 12C, 12E, 12G, 12I, 12K). AUC was calculated for each model for the duration of the experiment, then compared by one-way ANOVA followed by Tukey's post-hoc test. The box-and-whisker plots represent the median and range for each treatment group (FIGS. 12B, 12D, 12F, 12H, 12J, 12L). […]
(§2) DV and tucatinib were tested as monotherapies and in combination in PDX models with varying HER2 expression levels. […] Mice (n=10/group) were treated with tucatinib (50 mg/kg oral, twice daily), DV (2 mg/kg, intravenous, single dose), a combination of tucatinib and DV, or T-DXd (2 mg/kg, intravenous, single dose), and tumor volume was measured over time.

[2] = tested on: panel of breast cancer cell lines spanning a range of HER2 expression; test: 96-hour CellTiterGlo cytotoxicity assay of DV, T-DM1 and T-DXd; type: cell-based
Experimental: The following cell lines were cultured in the vendor-recommended conditions: breast cancer cell lines SK-BR-3, BT-474, UACC-893, HCC-202, JIMT-1, and BT-483. Cytotoxicity assays were performed using CellTiter-Glo (CTG) Luminescent Cell Viability assay (Promega Corporation) as per the manufacturer's protocol. Cells were seeded in 96-well plates and incubated overnight as previously described (1). […] Cells were then incubated at 37° C. in 5% CO2, and cell viability was measured at 96 hours after dosing.
Internalization of anti-HER2 ADCs DV, T-DM1, and T-DXd (two HER2-targeting ADCs with trastuzumab as a backbone) was also tested in breast cancer cell lines SK-BR-3, HCC-202, and BT-483.

[3] = tested on: gastric cancer PDX models; test: Tumor volume in gastric cancer PDX models with variable HER2 expression; type: in vivo, Mice; conditions: in a majority of the six PDX models; DV 2 mg/kg intravenous single dose
From the text: as §1, §2

[4] = tested on: PDO SG-111-444-6273 (HER2 low); test: Patient-derived organoid cytotoxicity, caspase-3/7 fluorescence imaging; type: cell-based; conditions: DV 27-6,700 ng/mL, T-DXd 41-10,000 ng/mL
Experimental: (§3) DV and T-DXd were also tested against a panel of PDOs: HER2 low SG-111-444-6273, HER2 low SG-634-395-2953, and HER2 moderate SG-553-819-8499. DV was titrated across a range of 27-6,700 ng/mL, while T-DXd was titrated across a range of 41-10,000 ng/mL. Drug and media was exchanged every four days. Analysis was conducted with fluorescence imaging: PDOs were identified from clusters of Hoechst positive cells, and caspase-3/7 was used for the identification of apoptotic cells. Mean caspase-3/7 intensity was measured per well and normalized to cell count.

[5] = tested on: PDO SG-634-395-2953 (HER2 low); test: as above; type: cell-based; conditions: DV 27-6,700 ng/mL, T-DXd 41-10,000 ng/mL
Experimental: as §3

[6] = tested on: PDO SG-553-819-8499 (HER2 moderate); test: as above; type: cell-based; conditions: DV 27-6,700 ng/mL, T-DXd 41-10,000 ng/mL
Experimental: as §3

Q: How did the “anti-tumor activity compared to untreated control (normalized AUC tumor growth metric)” value [1] turn out when disitamab vedotin [DV] was run?
A: The value was “significant anti-tumor activity”.

Q: What about the “IC50 compared with the IC50 for T-DM1 and T-DXd” value ([2]; for each cell line of the panel) of the same substance?
A: Its value is “lower”.

Q: And the “in vitro cytotoxic activity against the panel of breast cancer cell lines” value ([2]; variable HER2 expression, including HER2-low range, 0.01-10,000 ng/mL)?
A: The value was “in vitro cytotoxic activity”.

Q: What about the “anti-tumor activity of DV monotherapy” value [3] of the same substance?
A: Its value is “anti-tumor activity”.

Q: And the “single-agent cytotoxic activity as compared to T-DXd (caspase-3/7 intensity)” value [4]?
A: The value was “more potent single-agent cytotoxic activity”.

Q: What about the “single-agent cytotoxic activity as compared to T-DXd (caspase-3/7 intensity)” value [5] of the same substance?
A: Its value is “more potent single-agent cytotoxic activity”.

Q: And the “single-agent cytotoxic activity as compared to T-DXd (caspase-3/7 intensity)” value [6]?
A: Its value is “more potent single-agent cytotoxic activity”.

— patent publication US20260248947A1, “Methods of Treating Cancer Using Anti-HER2 Antibody-Drug Conjugates and HER2 Kinase Inhibitors” (Seagen Inc., priority 2023, published 2026)
